Source: US6383734B1, “Method to determine inhibition of PAK3 activation of Raf-1” (Advanced Research and Technology Institute, Inc., priority 1998, dated 2002)

Assays:
Raf-1 serine 338/339 = assay: In vitro kinase assay with Raf-1 peptide and Raf-CR3 as substrates; format: biochemical, human
Experimental: (§1) B. Kinase assays. Kinase samples were assessed for their ability to phosphorylate 500 μM Raf-1 peptide (33,[…]345) (SEQ ID NO:4) in the presence of 500 μMATP (containing 2 μCi [γ-^32P]-ATP at 30° C. for 10 minutes. Incubations were analyzed by P-81 phosphocellulose paper assay. Phosphorylation of serine 338/339 in Raf-CR3 was determined by similar incubations containing 1 μg of substrate at 30° C. for 30-60 minutes. Proteins were resolved by SDS-PAGE, transferred to Immobilon-P and the dried, Ponceau S-stained membranes were autoradiographed. Raf-1 kinase activity was measured by the coupled assay method using GST-Mek 1, GST-Erk1 and myelin basic protein by the method of D. Stokoe et al., Science, 264, 1463 (1994).
D. Expression of recombinant Raf-CR3 in E. Coli. DNA sequences encoding residues 307-648 of human c-Raf-1 were amplified by polymerase chain reaction using the 5′-primer […] (SEQ ID NO:5) and the 3′-primer […] (SEQ ID NO:6). The amplified DNA was purified, digested with EcoRI and XhoI and cloned into the Stratagene pCAL-n vector. The entire Raf-CR3 coding sequence was verified by termination reaction PCR DNA sequencing. Raf-CR3 D338E339 and A338A339 substitution mutants were generated by site-directed mutagenesis using the Promega Altered SitesTM in vitro mutagenesis system. Raf-CR3-calmodulin binding protein fusions were expressed in E. coli strain BL21 (pLysS). […]

Raf-1 = molecular target: T1, Raf-1 (Homo sapiens, UniProt P04049); assay: Raf kinase activity after co-transfection of PAK3 constructs with Raf-1 (with or without Ras[V12]) into COS-7 cells; format: cell-based
T1 construct: expressed in transfected cells; host or cells: COS-7
Experimental: as §1
F. Transfections. COS-7 cells were transfected with 10 μg of each plasmid DNA (pcEXV3 containing Ras^[V12], myc-Raf, myc-Raf-CX or pJ3H containing PAK3) by electroporation. Cells were lysed three days post-transfection in the presence of protease and phosphatase inhibitors and Raf-1 kinase activity was then examined as described by Stokoe et al., cited above. Transfection/expression efficiencies were assessed by densitometric scanning of Western blots of immunoprecipitates as well as cell lysates and data sets were normalized accordingly.

In the case of “Recombinant PAK3: recombinant His-tagged mouse PAK3 from Sf9 cells”, the “stimulation of Raf-1 peptide and Raf-CR3 serine 338/339 kinase activity by GTPase” value (Raf-1 serine 338/339; co-incubation with GST-Rac-GTPγS or GST-Cdc42-GTPγS, FIGS. 4c and 4d) is reported as “stimulated up to six-fold”.
“p37: 37-kD Raf-1 serine 338/339 kinase purified from rat spleen, a proteolytically cleaved catalytic domain of PAK3” was tested, and the “specific activity (Raf-1 peptide phosphorylation)” value (Raf-1 serine 338/339; kinase purified from rat spleen, Mono-P eluate) was 19,500 pmol/min/mg.
For “wild type PAK3: wild type p21-activated protein kinase PAK3, expressed from plasmid in COS-7 cells”, the “increase of Raf-CX or Ras[V12]-inducible Raf-1 activation on co-expression” value (Raf-1) was “did not significantly increase”.
